Assay [1] concerns the target Diaphorase. Put plainly: peptide array, 1 uM diaphorase, measured binding without FAD / with FAD.
Assay [2] has as its target Diaphorase. The assay can be described thus: peptide array, 1 uM labeled diaphorase, with FAD.
For assay [3], the target named is Diaphorase. The assay can be described thus: peptide array, 10 uM labeled diaphorase, no FAD.
The target in assay [4] is Diaphorase. Put plainly: peptide array, 1 uM labeled diaphorase, no FAD.
Assay [5] addresses Diaphorase. Put plainly: peptide array, 1 uM diaphorase, binding without FAD / with FAD.
The target in assay [6] is Diaphorase. The assay can be described thus: peptide array, 10 uM diaphorase, binding without FAD / with FAD.
For assay [7], the target named is Diaphorase. The assay can be described thus: peptide array, 10 uM labeled diaphorase, with FAD.

The values that follow come from US20190064177A1, “INCORPORATING COMPETITIVE BINDING INFORMATION INTO MOLECULAR ARRAY ANALYSIS TO GENERATE FUNCTION NETWORKS OF INTERACTIONS” (ARIZONA BOARD OF REGENTS ON BEHALF OF ARIZONA STATE …, priority 2017, published 2019).

With SGVLQFFGGSG, the Meas. ratio (noFAD/FAD) in the assay with Diaphorase [1] was 0.7.
Turning to KHSFQKELGGSG, the fluorescence in the assay with Diaphorase [2] was found to be 728; with Diaphorase [3], 2390; with Diaphorase [4] it was 2090; in the assay with Diaphorase [7], 300. Besides, the noFAD/FAD turned out to be 2.87 with Diaphorase [5] and 0.794 in the assay with Diaphorase [6].
Regarding WHLLGWVGYGGSG, the Meas. ratio (noFAD/FAD) in the assay with Diaphorase [1] was 0.7.
Take LKQLFLEGGSG: the fluorescence with Diaphorase [2] amounted to 2470; with Diaphorase [3], 8700; with Diaphorase [4] it was 1560; with Diaphorase [7], 23500. The results for the noFAD/FAD with Diaphorase [5] and with Diaphorase [6] were 0.63 and 0.369, respectively.
In the case of RFGQNLPLGGSG, the fluorescence with Diaphorase [2] turned out to be 2100; with Diaphorase [3] it was 63500; in the assay with Diaphorase [4], 5800; with Diaphorase [7] it was 34700. Besides, the noFAD/FAD with Diaphorase [5] worked out at 2.76; with Diaphorase [6] it was 1.83.
Turning to VFGVLSQVARDGSG, the fluorescence with Diaphorase [2] was 6640; with Diaphorase [3], 26200; in the assay with Diaphorase [4], 4250; with Diaphorase [7], 51500. Further, the noFAD/FAD in the assay with Diaphorase [5] was determined as 0.64; with Diaphorase [6], 0.509.
In the case of YWRFYANWAQLFG, in the assay with Diaphorase [1], the Meas. ratio (noFAD/FAD) was found to be 2.56.
Take AQVAVDGFYVDGSG: the fluorescence in the assay with Diaphorase [2] turned out to be 3090; with Diaphorase [3], 12600; with Diaphorase [4], 2010; in the assay with Diaphorase [7], 22700. In addition, the noFAD/FAD was found to be 0.652 in the assay with Diaphorase [5] and 0.555 with Diaphorase [6].
As for NRKFYWNAGGSG, the Meas. ratio (noFAD/FAD) in the assay with Diaphorase [1] came out at 2.1.
Same read-out and setting: to LFDNVLEFVEDGS belongs 0.69.
Still for that read-out and setting: to WRVQAWRPNKVEG belongs 2.43; to WRLNPLQFGGSG, 2.54; to YRWGAKHYGGSG, 2.06.
Regarding RQRYPKVSGGSG, in the assay with Diaphorase [1], the Meas. ratio (noFAD/FAD) was determined as 1.71.
For the molecule RYNLYKPSDGSG, the fluorescence was determined as 1250 in the assay with Diaphorase [2], 50300 with Diaphorase [3], 3570 with Diaphorase [4] and 18200 with Diaphorase [7]. In addition, the results for the noFAD/FAD in the assay with Diaphorase [5] and in the assay with Diaphorase [6] were 2.87 and 2.77, respectively.
Turning to YRFAQYKGQKDGSG, the fluorescence was found to be 1600 in the assay with Diaphorase [2], 56900 with Diaphorase [3], 4470 with Diaphorase [4] and 19900 with Diaphorase [7]. The results for the noFAD/FAD with Diaphorase [5] and with Diaphorase [6] were 2.78 and 2.86, respectively.
In the case of WRSVYVPNGGSG, the Meas. ratio (noFAD/FAD) with Diaphorase [1] amounted to 2.35.
Turning to RWYKNGGSG, the fluorescence in the assay with Diaphorase [2] turned out to be 3660; with Diaphorase [3] it was 64800; in the assay with Diaphorase [4], 10200; with Diaphorase [7] it was 46300. For the same molecule, the noFAD/FAD with Diaphorase [5] stood at 2.78; with Diaphorase [6], 1.4.
With YRRFPYFPGGSG, the Meas. ratio (noFAD/FAD) with Diaphorase [1] stood at 1.6.
Same read-out and setting: to YRRPWKFRDGSG belongs 1.74.
In the case of PQKSNHFHEAQKR, in the assay with Diaphorase [1], the Meas. ratio (noFAD/FAD) turned out to be 2.41.
The same measure, in the same setting: then YQRHQNVFAKSGG, with 2.56; and WRPFWKNLGGSG, with 2.18; and YRYGWQKYGGSG, with 2.43.
Still for that read-out and setting: then YRGAGKNKGGSG, with 1.49; and PRFNWKPYGGSG, with 2.44.
In the case of VVQALFDGSG, the fluorescence with Diaphorase [2] worked out at 2300; in the assay with Diaphorase [3], 9480; in the assay with Diaphorase [4] it was 1470; in the assay with Diaphorase [7], 21200. In addition, the noFAD/FAD in the assay with Diaphorase [5] was found to be 0.637; with Diaphorase [6], 0.448.
Regarding RVLPYHGWKWFSG, in the assay with Diaphorase [1], the Meas. ratio (noFAD/FAD) amounted to 2.45.
As to FQFGKVVSDGSG, the fluorescence with Diaphorase [2] worked out at 2470; in the assay with Diaphorase [3], 12700; with Diaphorase [4], 1570; with Diaphorase [7], 20200. In addition, the noFAD/FAD with Diaphorase [5] was 0.637; in the assay with Diaphorase [6] it was 0.631.
As to PVPWRHVNYAHSG, the Meas. ratio (noFAD/FAD) in the assay with Diaphorase [1] was 0.69.
Same read-out and setting: then PVDFGYQLKVSGS, with 0.66.
In the case of WLDLGVFPYQHLGSG, the fluorescence with Diaphorase [2] was 3430; in the assay with Diaphorase [3], 25700; in the assay with Diaphorase [4], 2200; in the assay with Diaphorase [7] it was 33600. Further, the figures for the noFAD/FAD with Diaphorase [5] and with Diaphorase [6] were 0.641 and 0.765, respectively.
Consider ARWQQYKFGGSG, for which the Meas. ratio (noFAD/FAD) with Diaphorase [1] turned out to be 2.18.
